pKd: −log10 of the molar value.

For this assay, the target named is complement component C3b (human) (UniProt P01024). Briefly: SPR.
Regarding “complement receptor 1 CR1 CCP15–17 (residues 942–1,136) (from UniProt P17927 942-1136) (domain or fragment)”, the pKd is 5.72.

Consider “decay-accelerating factor DAF CCP1–4 (domain or fragment)”, for which the pKd is 5.21.

As for factor H FH CCP1–4 (domain or fragment), the pKd is 5.14.

“membrane-cofactor protein MCP CCP1–4 (residues 35–285), from E. coli (from UniProt P15529 35-285) (domain or fragment)” showed a pKd of 6.46. Against the preceding substance, the pKd is 1.32 log units higher.

The substance “smallpox inhibitor of complement enzymes, SPICE CCP1–4 (residues 19–263) (natural protein)” had a pKd of 5.89.
